From publication PMC5299547 (Analytical Chemistry, 2017)

Biological target: T1, tryptophan synthase, beta subunit (Salmonella typhimurium, UniProt P0A2K1 2-397)
T1 sequence: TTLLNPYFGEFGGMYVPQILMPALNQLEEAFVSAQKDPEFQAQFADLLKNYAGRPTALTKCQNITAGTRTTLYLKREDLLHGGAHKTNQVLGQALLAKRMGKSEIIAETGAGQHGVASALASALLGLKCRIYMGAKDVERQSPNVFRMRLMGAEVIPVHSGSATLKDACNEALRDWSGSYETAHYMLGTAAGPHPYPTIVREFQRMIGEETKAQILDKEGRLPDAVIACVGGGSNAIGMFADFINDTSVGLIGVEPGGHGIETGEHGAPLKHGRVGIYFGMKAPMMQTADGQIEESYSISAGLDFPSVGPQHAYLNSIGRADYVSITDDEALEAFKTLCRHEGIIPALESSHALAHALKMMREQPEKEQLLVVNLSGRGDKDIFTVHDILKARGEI
Test: native MS; 10 μM purified complex buffer-exchanged in 200 mM ammonium acetate, electrosprayed (Synapt G2Si); subcomplexes generated in solution with 10–40% methanol, DMSO or acetonitrile
Conditions: both partners purified

B1: tryptophan synthase, alpha subunit (natural protein, Salmonella typhimurium)
chain: MERYENLFAQLNDRREGAFVPFVTLGDPGIEQSLKIIDTLIDAGADALELGVPFSDPLADGPTIQNANLRAFAAGVTPAQCFEMLALIREKHPTIPIGLLMYANLVFNNGIDAFYARCEQVGVDSVLVADVPVEESAPFRQAALRHNIAPIFICPPNADDDLLRQVASYGRGYTYLLSRSGVTGAENRGALPLHHLIEKLKEYHAAPALQGFGISSPEQVSAAVRAGAAGAISGSAIVKIIEKNLASPKQMLAELRSFVSAMKAASRA
- binding result: binds
